Molecular target: human IgG antibody (human)
Experiment: SPR (Biacore), ligand immobilised on CM5

“modified protein A (manufactured by Sino Biological Inc.)” was tested, and the koff was 0.00032 s⁻¹.

From patent US20170210777A1
